Experimental data reported in paper PMC3366918.

Columns and labels:
[1] = molecular target: HIV-1 Rev wildtype, fused at its carboxy terminus to CFP (donor) or YFP (acceptor) (HIV-1 strain HXB3); test: FRET or BRET
[2] = molecular target: ZipRevSLT40: yeast GCN4 leucine zipper fused to the amino terminus of RevSLT40, with CFP or YFP at the carboxy terminus (yeast | HIV-1 strain HXB3); test: FRET or BRET

**Q.** With “HIV-1 Rev wildtype, fused at its carboxy terminus to CFP (donor) or YFP (acceptor) (natural protein)” as the substance, how does the percent FRET positive cells [1] read?
**A.** 80.3%

**Q.** With “ZipRevSLT40: yeast GCN4 leucine zipper fused to the amino terminus of RevSLT40, with CFP or YFP at the carboxy terminus” as the substance, how does the percent FRET positive cells [2] read?
**A.** 41.9%
